In paper PMC3024247 one finds Kd data, which are given here for one molecule.

The test concerns the target amyloid β-peptide (human, 1-40) (human). Description: SPR; Biacore 3000; Aβ immobilised by amine coupling on a CM5 chip; analytes injected in 10 mM HEPES-NaOH pH 7.4, 0.15 M NaCl, 0.0005% Tween 20; 25°C; hMK 0.62-20 μg/ml for the constant, all other analytes 5 μg/ml. On the technique in general: Surface plasmon resonance follows binding to a sensor surface in real time, without labels.

B1: human midkine (natural protein)
chain: VAKKKDKVKKGGPGSECAEWAWGPCTPSSKDCGVGFREGTCGAQTQRIRCRVPCNWKKEFGADCKYKFENWGACDGGTGTKVRQGTLKKARYNAQCQETIRVTKPCTPKTKAKAKAKKGKGKD
For B1, the Kd was found to be 160 nM.

In general, Kd refers to a measure of binding affinity in units of concentration. A lower Kd goes with a tighter complex.
